In article PMC5548392:

Molecular target: RAB21 (UniProt P35282)
Assay: GST pull-down with purified proteins
Conditions: reference: RPH3A incubated with PKN1 without ATP; sites S234,S271

binding against the reference: stronger
Substance: RPH3A (Rabphilin 3A) (from UniProt P47708) RPH3A incubated with PKN1 and ATP
